This is an account of results in the supplement of paper PMC12764529.

The nature of the data set: folding stability dG unfold (combined trypsin and chymotrypsin); higher = more stable. The method, then:
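Folding stability of de novo designed mini-proteins (<80 aa, no Cys; designed by TrROS, TrMRF, ProteinMPNN and the joint model) was measured by cDNA display proteolysis with trypsin and chymotrypsin. Each protease was used at 11 concentrations in a threefold dilution series plus a no-protease condition. K50 was inferred by Bayesian fitting of sequencing counts, and dG unfold was derived against a sequence-predicted unfolded-state K50 (Tsuboyama et al. method). Sequences shown include variable-length N-terminal GS-type padding (SAGGSAGG...) inside a display construct carrying a PA tag. Rows were kept only if the AF2 dimer inter-PAE was >15, to exclude likely homo-oligomers.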
Take “SAGGSAGGSAGGSAMVYRTEVLVESEELPPPGVGGRLRREGEKVIVRKAPPEALEELGRSAGGSAGGSAGGS [r4_274_JUSTAS]”: the “folding stability dG unfold” value was less than -1 kcal/mol.
As for “SAGGSAGGSAGGSELVGPEKAKEIIKEAYEKGYEEIPILLHLPNGETEEKIIKVPKNKISAGGSAGGSAGGS [r4_342_TrMRF]”, the “folding stability dG unfold” value is less than -1 kcal/mol.
In the case of “SAGGSAGGSAGGSENEPIPIQVKIWDPKDGEPVRTIPFNIWPGRSINELANKFPGVEIVSAGGSAGGSAGGS [r4_187_TrROS]” it was less than -1 kcal/mol.
The figure for “SAGGSAGGSAGGSFVPMSQVTKVTPVGDKLVIETPGNPIVFSPEEIPIPEDLPLNFVPRSAGGSAGGSAGGS [r10_665_JUSTAS]” is less than -1 kcal/mol; for “SAGGSAGGSAGGSGEDDVEVEVVPLPGDLTRTIERFPGLVRTFVYAPDSEVAEEEFELPSAGGSAGGSAGGS [r4_322_JUSTAS]” it is less than -1 kcal/mol; for “SAGGSAGGSAGGSGMMVPTTVTITVPAPDGTPVRTVTITTTSPTATLEEIKARVAPFLASAGGSAGGSAGGS [r4_375_JUSTAS]” it is less than -1 kcal/mol.
In the case of “SAGGSAGGSAGGSGMRLVEEVKYSTRKQPTGVPVYEVENLKVKEVPVKITVDSNGVLTLESAGGSAGGSAGG [r11_381_JUSTAS]” it was less than -1 kcal/mol; in that of “SAGGSAGGSAGGSGSSVTTVTEEPGRRVVTRFVPETGEEEVLSTEEVPAPPLPLSPALLSAGGSAGGSAGGS [r4_21_JUSTAS]”, less than -1 kcal/mol; in that of “SAGGSAGGSAGGSGVKTRAGSFPDRDYTITEDPVVPGIYTVKFPPEVTVTLPKSEIPPLSAGGSAGGSAGGS [r10_556_JUSTAS]”, less than -1 kcal/mol.
“SAGGSAGGSAGGSHTFEFPGRKITIHRNPNGMYPIEIETNGKPREIMIPPNDLDKLLKASAGGSAGGSAGGS [r4_346_TrROS]”: the “folding stability dG unfold” value is less than -1 kcal/mol.
The figure for “SAGGSAGGSAGGSKEITFPAREIAEKLGIPPGRPITPEFLNKIKHVETDENGWVTLKLDSAGGSAGGSAGGS [r4_369_TrROS]” is less than -1 kcal/mol; for “SAGGSAGGSAGGSKKKFKVKVIEKKPTTFPDGGVLVDYKVEIPETGALFDLKLTYTGEASAGGSAGGSAGGS [r4_94_TrMRF]” it is less than -1 kcal/mol; for “SAGGSAGGSAGGSMKILYKLKNDNKVITSLEELKKEIESGKKVTIEEVKEIEESPDVPLSAGGSAGGSAGGS [r4_479_JUSTAS]” it is less than -1 kcal/mol.
In the case of “SAGGSAGGSAGGSMKIYVTSPEEAKKEKEKILEELKKTNIPPKVKVEVKVIPKSEIPLESAGGSAGGSAGGS [r4_472_JUSTAS]”, the “folding stability dG unfold” value is less than -1 kcal/mol.
The figure for “SAGGSAGGSAGGSMLLTSQLLREFPNGEVRLETEVVELELPDEPLPLPKPKPRRDPEGRLVSAGGSAGGSAG [r3_252_JUSTAS]” is less than -1 kcal/mol; for “SAGGSAGGSAGGSMTVTVEPVPNSDKLRVTTTTTFLNPSNGQVTSTSTSTTVVPPGVAPSAGGSAGGSAGGS [r10_86_JUSTAS]” it is less than -1 kcal/mol; for “SAGGSAGGSAGGSMVVPASEVEEYVERRKRETGDRFEVTPIPEEGVTPVRLEPADPALESAGGSAGGSAGGS [r4_419_JUSTAS]” it is less than -1 kcal/mol.
In the case of “SAGGSAGGSAGGSNIPTDETVEKVVKIGPKPVTVTITAEPGKLLAKFPKEKKTVPISSLLSAGGSAGGSAGG [r7_37_JUSTAS]” it was less than -1 kcal/mol; in that of “SAGGSAGGSAGGSPPSLDYSVRTITTTVEETTFFPDNGTVRSRPVHVTTVVFEPLDSVESAGGSAGGSAGGS [r10_133_JUSTAS]”, less than -1 kcal/mol; in that of “SAGGSAGGSAGGSPQIKVEYERNGGYYPVKISIPNGRKVEIPNMPVENAEKMAKEFLKKSAGGSAGGSAGGS [r4_383_TrROS]”, less than -1 kcal/mol.
In the case of “SAGGSAGGSAGGSSAQIPFPDDGAWIMIDWDPEGRPKVKVHNPDNGEEIEFPPGAPIKISAGGSAGGSAGGS [r4_158_TrROS]” it was less than -1 kcal/mol; in that of “SAGGSAGGSAGGSSVEEEFLAYAKANPEPAPFEFEGPDEKVLLYFPPGGEIDPVSIELKSAGGSAGGSAGGS [r4_438_JUSTAS]”, less than -1 kcal/mol; in that of “SAGGSAGGSAGGVVELPELPPGDDAEVTEVRTPSPGPVELVLRPPHSDETTTRTLSPERLSAGGSAGGSAGG [r7_342_JUSTAS]”, less than -1 kcal/mol.
As to “SAGGSAGGSAGGWYRIKWPNGHEYPVKVDEIDPDGNIKVEPPNDEEHKFPADGMKIEPLPSAGGSAGGSAGG [r7_823_TrROS]”, the “folding stability dG unfold” value is less than -1 kcal/mol.
The figure for “SAGGSAGGSAGKITIKPEGQDGNGMYYEIRLPDNGKTIQVPFPSPEDADRRAKKILKELFSAGGSAGGSAGG [r11_848_TrROS]” is less than -1 kcal/mol; for “SAGGSAGGSAGKMVEVRIEVDVPDADGRPVRVTFTAPLPLHPDGRIDVPAGRVRRVEVRGSAGGSAGGSAGG [r11_664_TrMRF]” it is less than -1 kcal/mol.
In the case of “SAGGSAGGSAGKNGQPEKVEPQPKIKIRVEDNGKEFETPEQAEELKDELAKKGYKIKVERSAGGSAGGSAGG [r17_289_TrROS]” it was less than -1 kcal/mol; in that of “SAGGSAGGSAGKPYRIKIEFYPPGNGQPMEHTFPVKSPEEAVNNLEKSFPNYQIRVDVVESAGGSAGGSAGG [r17_428_TrROS]”, less than -1 kcal/mol; in that of “SAGGSAGGSAGMEIKPVKVKAIDPENPKPVAEFEVEVLPDKIIIPKEFAEKVPEDHVEVESAGGSAGGSAGG [r11_725_TrMRF]”, less than -1 kcal/mol.
Regarding “SAGGSAGGSAGMEIKYVPEEGLIEVVEKTPKKLPLYSPRYGLEYETKVTTIPPGELDKPLSAGGSAGGSAGG [r11_531_JUSTAS]”, the “folding stability dG unfold” value was less than -1 kcal/mol.
On to “SAGGSAGGSAGMIVRPVTVTIIDPTNSTPVKTFEALELPDELVIPEEVAKQFSPENVLVRSAGGSAGGSAGG [r11_725_JUSTAS]”, for which the “folding stability dG unfold” value was less than -1 kcal/mol.
“SAGGSAGGSAGMKIKLPNIPGAEVEIEKDPEVPDLYKIKIKNKETKEEIEITLPKEALKPSAGGSAGGSAGG [r17_341_TrROS_Hall]”: the “folding stability dG unfold” value was less than -1 kcal/mol.
The figure for “SAGGSAGGSAGMKVEPKEDPVVDKSGKPKPITKIYVYVPEPLREEALKEAEENGEEVVLESAGGSAGGSAGG [r17_114_JUSTAS]” is less than -1 kcal/mol.
The figure for “SAGGSAGGSAGMKVREITGPPDDAKELLDENPDGITSIAIEPHPKNGQYRITFFDQGPPKSAGGSAGGSAGG [r17_79_TrROS]” is less than -1 kcal/mol; for “SAGGSAGGSAGMPVTESTVTTPTGGLRVTYFPGTNLIELLPVEDGEPRPRLFNSEEALERLSAGGSAGGSAG [r3_426_JUSTAS]” it is less than -1 kcal/mol; for “SAGGSAGGSAGMSTTIEITDPNLSKEEIKKRIREELGPDVKVTSITEETPDTLKATIVKKSAGGSAGGSAGG [r11_580_JUSTAS]” it is less than -1 kcal/mol.
The figure for “SAGGSAGGSAGMTLEELQKEGYKVEVIRYPDSPHWYVEIEYPDPDGKKKERTIPVDDIKPSAGGSAGGSAGG [r17_311_TrROS]” is less than -1 kcal/mol.
Consider “SAGGSAGGSAGMTVKEFTTEEEAKEAIEKAPKDVPLLLILKKPESEEEKVILYTGDKVIEEESAGGSAGGSA [r18_407_JUSTAS]”, for which the “folding stability dG unfold” value was less than -1 kcal/mol.
In the case of “SAGGSAGGSAGMVTTSETITVTVTLPTGPTETITVPVTTTVPVVPVSPEVAAADPAAVAALLSAGGSAGGSA [r18_114_JUSTAS]” it was less than -1 kcal/mol; in that of “SAGGSAGGSAGNEVRVDPDTNLLLVELSNGGRARVLLNEGVIYIEPEGTTFEDIEIEPAASAGGSAGGSAGG [r17_174_TrMRF]”, less than -1 kcal/mol; in that of “SAGGSAGGSAGNKPIMIKAEFPGNGREVEFPIRSPEQAKEFAKRLANQPGFPIKDVDIYPSAGGSAGGSAGG [r11_951_TrROS]”, less than -1 kcal/mol.
In the case of “SAGGSAGGSAGNMEPVPTFELPHDDGRPFTIEVYKDPPMIRVEFPGKPRTMPAEEIKKLISAGGSAGGSAGG [r11_370_TrROS]” it was less than -1 kcal/mol; in that of “SAGGSAGGSAGPESRTITLEDPGSLEEAIERALATLPPDTTVTVTFGDEPVELNAATLRALSAGGSAGGSAG [r3_50_JUSTAS]”, less than -1 kcal/mol.
As to “SAGGSAGGSAGPKPVLLTIEVEAKPDEAEAVAKEIYEKEFPEAKDVTVETFPEKGTFRVTFGSAGGSAGGSA [r18_390_TrMRF]”, the “folding stability dG unfold” value is less than -1 kcal/mol.
Regarding “SAGGSAGGSAGPNDKWKMEMEIEHSIPIEPGDTVRSPDTGEPIKPGKQVSIFRMYMEPAPSAGGSAGGSAGG [r11_793_TrROS]”, the “folding stability dG unfold” value is less than -1 kcal/mol.
The figure for “SAGGSAGGSAGPPERTLSAIIAPNGEILNPIPVPEGAKVTVEPIPETGYYVATVTVPADVSAGGSAGGSAGG [r11_32_TrMRF]” is less than -1 kcal/mol; for “SAGGSAGGSAGRLPPGMKIRIWHRRDGKPRRREFEIPPGMPSIEDAAKEHPPIESVKIERSAGGSAGGSAGG [r11_157_TrROS]” it is less than -1 kcal/mol; for “SAGGSAGGSAGSTVKITVKGKTITVPKGAKVKLKNGKTFKAGESLESLSPEEIVKVEKVPSAGGSAGGSAGG [r17_511_TrROS_Hall]” it is less than -1 kcal/mol.
In the case of “SAGGSAGGSAGTTLLETEELPGPVRVTVERYKLPDGTLRVRTTEIDPSTGARHPREELVESAGGSAGGSAGG [r11_727_JUSTAS]” it was less than -1 kcal/mol.
Consider “SAGGSAGGSAGVIPFDSPEDAERAIEEAFRNGDPVTIHRRNPDGKHQTIPFKIKLPKNDPSAGGSAGGSAGG [r17_462_TrROS]”, for which the “folding stability dG unfold” value is less than -1 kcal/mol.
The figure for “SAGGSAGGSAGVTDPNSSKPVPSSYVVVTVRGPEKESYYRVPPSEAAAFAAARGVEVILESAGGSAGGSAGG [r17_109_JUSTAS]” is less than -1 kcal/mol; for “SAGGSAGGSAKKIEIEPMPNGWTVRIKGNDGKKREIPIPNPNQSISDIAKRAEDNGIDDVEISAGGSAGGSA [r18_83_TrROS]” it is less than -1 kcal/mol.
In the case of “SAGGSAGGSALKINKLLKEGYEVEVTPPDGKKYVLKKGDSAKKPKEKFNLPENAKIKIKPLSAGGSAGGSAG [r3_216_TrMRF]”, the “folding stability dG unfold” value is less than -1 kcal/mol.
